Data taken from patent US8889130B2, “Treatment of osteoarthritis and pain” (Abbvie Inc., priority 2011, dated 2014).

Tests used:
DMM mice = experiment: DMM model of osteoarthritis, mechanical allodynia (paw withdrawal threshold); type: in vivo, mouse; details: Example 5 (FIG. 12); 6 mg/kg ip twice per week for four weeks; day 28
Description: The DMM model also generates measurable pain in the mice. […] The efficacy of anti-IL-1α/β therapy was studied in the DMM animal model.
The potential of anti-IL-1 therapy to ameliorate pain was tested in the DMM mouse model of OA in terms of mechanical allodynia. Dosing of the combination of IL-1α and IL-1β mAbs was initiated on the day of the surgery and was repeated twice a week for 5 weeks. Animals were treated with PBS vehicle alone, with an IgG isotype control, or with a combination of anti-IL-1α and anti-IL-1β mAbs (at a dose of 6 mg/kg for each mAb). Animals were tested weekly for paw withdrawal threshold. […] This reduction in pain was seen as early as week 1 following treatment (data not shown).
To evaluate the effect of IL-1 therapy in established pain, animals in the IgG control group with established OA and mechanical allodynia were treated on day 35 with the combination of anti-IL-1α and anti-IL-1β monoclonal antibodies and the paw withdrawal threshold was tested 24 hours later (day 36).
The potential of anti-IL-1 therapy to ameliorate pain in the DMM mouse model of OA (see, above) in terms of mechanical allodynia was further evaluated. Dosing of the combination of IL-1α and IL-1β mAbs was initiated on the day of the surgery and was repeated twice a week for 4 weeks. […]

male DBA-1 mice = experiment: Collagen-induced arthritis mouse model (rheumatoid arthritis); type: in vivo; details: therapeutic mode; 1-3 mg/kg intraperitoneally every other day after disease onset
Description: The therapeutic effects of anti-IL-1α, anti-IL-1β, combined anti-IL-1α/anti-IL-1β, and murine IL-1α/β DVD4-Ig, were evaluated in a collagen-induced arthritis mouse model well known in the art. Briefly, male DBA-1 mice were immunized with bovine type II collagen in CFA at the base of the tail. The mice were boosted with Zymosan intraperitoneally (i.p) at day 21. After disease onset at day 24-27, mice were selected and divided into separate groups of 10 mice each. […] To neutralize IL-1, mice were injected every other day with 1-3 mg/kg of anti-IL-1α mAb, anti-IL-1βmAb, combination of anti-IL-1α and anti-IL-1β mAbs, or murine IL-1α/β DVD4-Ig intraperitoneally. Mice were carefully examined three times a week for the visual appearance of arthritis in peripheral joints, and scores for disease activity determined.

mice (female BALB/c) = experiment: Mouse carrageenan-induced inflammatory pain model, thermal hyperalgesia (paw withdrawal latency); type: in vivo; details: Example 8; 48 and 96 hours; single mAb 900 μg; diclofenac 30 mg/kg
Description: To evaluate whether neutralization of IL-1α and IL-1β produces antinociceptive effects in inflammatory pain conditions, anti-IL-1α and anti-IL-1β mAbs were evaluated for the ability to reverse established pain in the mouse carrageenan paw model of nociceptive pain.
The efficacy of the anti-IL-1α and anti-IL-1β mAbs was evaluated when administered alone or in combination in the mouse carrageenan model (FIG. 15). At 30 hours after intraplantar carrageenan injection: 900 μg of either anti-IL-1α mAb, anti-IL-1β mAb, or their combination were administered in different groups of mice. Thermal hyperalgesia testing was performed 48 and 96 hours after carrageenan. […] The antinociceptive effect in 900 μg combination group was 53±7% at 48 hours, and 82±11% at 96 hours.
Different groups of animals were treated either with vehicle or a combination of anti-IL-1α and anti-IL-1β mAbs (100, 300, or 900 μg/mouse of each mAb) 30 hours after carrageenan injection. […] The antinociceptive effect in 900 μg treatment group was 70±9% at 48 hours, and 62±4% at 96 hours. Diclofenac (30 mg/kg), a non-steroidal, anti-inflammatory analgesic, was included as positive control in the study, and it increased the mean paw withdrawal latency of the injured paw to 7.01±0.58 s at 48 hours and 7.48±0.34 s at 96 hours when administered p.o. 60 minutes before testing (p<0.01 at both time points).

B1: 10G11: mouse anti-mouse IL-1β monoclonal antibody (clone 10G11) from IL-1α/β double KO mice (antibody, V domains shown)
VH: EVQLQQSGPELVKPGTSVKMSCKTSGYTFTSYVMHWVKQKPGQGLEWIGYIIPYNDNTKYNEKFKGKATLTSDKSSSTAYMELSSLTSEDSAVYYCARRNEYYGSSFFDYWGQGTTLTVSS
VL: DIQMTQSPASLSASVGETVTITCRGSGILHNYLVWYQQKQGKSPQLLVYSAKILADGVPSRFSGSGSGTQYSLKINSLQPEDFGSYYCQHFWSTPFTFGSGTKLEIKR
modifications: heavy chain variable domain of 10G11; light chain variable domain of 10G11
notes: mouse anti-mouse IL-1β monoclonal antibody (clone 10G11) from IL-1α/β double KO mice
paw withdrawal threshold (allodynia) (DMM mice): allodynic (painful)
reduction in mean arthritis score compared to control group (male DBA-1 mice): 24%
thermal hyperalgesia / antinociceptive effect (mice (female BALB/c)): no significant antinociceptive effect
